According to paper PMC10901556, “Conservation of Affinity Rather Than Sequence Underlies a Dynamic Evolution of the Motif-Mediated p53/MDM2 Interaction in Ray-Finned Fishes” (Molecular Biology and Evolution, 2024):
Where no end group is shown, it is not given here.

B1: MDM2_(D.rerio) SWIB domain (domain or fragment)
chain: SQISKVDNEKLVRPKVQLKSLLEDAGADKDVFTMKEVMFYLGKYIMSKELYDKQQQHIVHCGEDPLGAVLGVKSFSVKEPRALFALINRNLVT
B2: Takifugu rubripes (Japanese puffer) p53TADP1 p53TAD^full-length (domain or fragment)
chain: MTLNEMTSSSMFLCRSSSDLPAHHRGRMEDEGFSLPLSQDTFQDLWENVAAPSIVTIPTTSLENEQWHQELLMNYPELPFNEELFNLPSEMASKDSANLSTPTVPV
B3: Danio rerio (zebrafish) p53TADP2 p53TAD^15–27 (peptide)
peptide: Ac-SQEFAELWEKNL
notes: numbers count on: human p53TAD; also called p53TAD^15–27_(D.rerio); source: bought: GeneCust (France), peptide

How the values were obtained:
Assay in all cases: fluorescence polarisation; displacement: complex of MDM2 (0.2-2 μM) and FITC-p53TAD_(human)^15–26 (15 nM) displaced by increasing unlabeled p53TAD peptide or p53TAD^full-length; KD calculated from IC50 (Nikolovska-Coleska et al. 2004); 20 mM sodium phosphate pH 7.4, 150 mM NaCl, 1 mM TCEP
Details in all cases: both partners purified
p53TAD_(H.sapiens)^15–27 = target: T1, p53TAD_(H.sapiens)^15–27 (Homo sapiens (human), N-terminal acetylated)
T1 construct: also called p53TAD_(human)^15–27; Homo sapiens (human) p53TAD^15–27; source: bought: GeneCust (France), peptide

[1] = target: T2, MDM2 SWIB domain from Takifugu rubripes (Japanese puffer) (Takifugu rubripes (Japanese puffer))
T2 construct: MDM2 SWIB domain, Takifugu rubripes; pETM33 vector; Construct limits are in supplementary Spreadsheet S5; also called MDM2 T. rubripes; source: E. coli BL21 (DE3), purified (glutathione agarose, PreScission cleavage, Nickel Sepharose flow-through, SEC); not shown: His6, N-terminal, cleaved; GST, N-terminal, cleaved

[2] = target: B1

B1
Kd (p53TAD_(H.sapiens)^15–27): 790 ± 50 nM

B2
Kd [1]: 470 ± 30 nM

B3
Kd [2]: 3600 ± 300 nM
